In PMC12170873, “The Spc105/Kre28 complex promotes mitotic error correction by outer kinetochore recruitment of Ipl1/Sli15” (The EMBO Journal, 2025):

What was measured:
Conditions in all cases: both partners purified
[1] = target: T1, Spc105-Flag/Kre28 complex (S. cerevisiae, UniProt P53148 1-917; Q04431 1-385); assay: pull-down; KMN or its subcomplexes from Sf9 cells immobilised on anti-Flag M2 beads; 100 µl of 2 µM Ipl1/Sli15 added to ~20 µl beads; 4 °C, 6 h; 25 mM HEPES pH 7.4, 200 mM NaCl, 1 mM MgCl2, 2.5% glycerol, 0.01% Tween-20; eluted with 3xFlag peptide; Coomassie and anti-His blot; also done with prolonged incubation times (Fig. EV3A)
T1 construct: Spc105 (Knl1 homologue), S. cerevisiae; Kre28 (Zwint homologue), S. cerevisiae, wild type; the asterisk is not explained; A potential proteolysis product of full-length Spc105 is marked in the gels; also called Spc105/Kre28; K subcomplex; source: Sf9 insect cells (baculovirus pFAP10), purified on anti-Flag M2 beads; also as part of the co-expressed KMN network (KT1-5 and KT1-6); not shown: Flag, …
T1 sequence (looked up) 1: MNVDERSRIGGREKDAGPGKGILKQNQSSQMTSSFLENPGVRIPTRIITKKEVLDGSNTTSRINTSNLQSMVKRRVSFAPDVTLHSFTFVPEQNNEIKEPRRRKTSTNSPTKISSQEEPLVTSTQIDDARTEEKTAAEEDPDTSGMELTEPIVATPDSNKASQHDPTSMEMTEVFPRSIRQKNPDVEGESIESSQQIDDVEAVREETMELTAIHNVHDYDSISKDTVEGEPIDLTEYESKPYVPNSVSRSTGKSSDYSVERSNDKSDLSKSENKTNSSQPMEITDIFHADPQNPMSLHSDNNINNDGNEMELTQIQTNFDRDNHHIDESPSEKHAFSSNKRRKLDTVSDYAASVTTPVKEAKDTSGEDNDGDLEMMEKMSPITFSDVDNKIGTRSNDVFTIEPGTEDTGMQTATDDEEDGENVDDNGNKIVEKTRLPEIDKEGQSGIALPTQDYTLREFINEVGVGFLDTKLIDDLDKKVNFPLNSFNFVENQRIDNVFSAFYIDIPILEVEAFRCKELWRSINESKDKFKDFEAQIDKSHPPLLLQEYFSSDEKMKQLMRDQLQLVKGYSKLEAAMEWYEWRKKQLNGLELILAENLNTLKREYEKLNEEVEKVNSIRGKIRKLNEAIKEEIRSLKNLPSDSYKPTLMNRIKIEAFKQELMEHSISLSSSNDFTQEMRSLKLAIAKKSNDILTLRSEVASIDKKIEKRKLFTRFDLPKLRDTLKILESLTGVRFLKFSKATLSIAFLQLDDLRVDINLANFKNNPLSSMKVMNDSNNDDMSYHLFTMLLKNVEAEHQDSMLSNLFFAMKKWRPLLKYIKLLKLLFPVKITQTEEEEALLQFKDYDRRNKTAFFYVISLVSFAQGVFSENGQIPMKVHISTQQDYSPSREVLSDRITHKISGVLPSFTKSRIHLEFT
T1 sequence (looked up) 2: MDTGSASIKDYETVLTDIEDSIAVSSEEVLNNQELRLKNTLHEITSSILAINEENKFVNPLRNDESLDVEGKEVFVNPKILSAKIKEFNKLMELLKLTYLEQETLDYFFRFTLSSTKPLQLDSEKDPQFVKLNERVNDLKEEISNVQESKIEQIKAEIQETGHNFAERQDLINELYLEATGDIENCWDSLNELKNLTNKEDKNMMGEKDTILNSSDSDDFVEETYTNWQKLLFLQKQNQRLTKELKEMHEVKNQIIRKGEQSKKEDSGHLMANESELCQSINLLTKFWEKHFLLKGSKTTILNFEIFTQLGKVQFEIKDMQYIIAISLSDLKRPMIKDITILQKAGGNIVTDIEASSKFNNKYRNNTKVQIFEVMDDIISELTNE

[2] = target: T2, recombinant budding yeast KMN network (Spc105-Flag/Kre28^WT, Mtw1 complex, Ndc80 complex) (S. cerevisiae, UniProt P53148 1-917; Q04431 1-385; P39731 1-289; P40568 1-576; P47149 1-201; Q12143 …); assay: cross-linking; recombinant KMN and Ipl1/Sli15 mixed at equimolar amounts, BS3 (d0/d12), 35 °C, 30 min; cross-links identified by mass spectrometry (xQuest)
T2 construct: Spc105 (Knl1 homologue), S. cerevisiae; Kre28 (Zwint homologue), S. cerevisiae, wild type; Mtw1, S. cerevisiae; Dsn1, S. cerevisiae; Nnf1, S. cerevisiae; Nsl1, S. cerevisiae; Ndc80, S. cerevisiae; Nuf2, S. cerevisiae; Spc24, S. cerevisiae; Spc25, S. cerevisiae; also called wild-type Kre28 KMN network; not shown: Flag, C-terminal, kept; copies: + + + + + + + + +

[3] = target: T3, recombinant KMN network containing Kre28^ΔZwint (S. cerevisiae, UniProt P53148 1-917; Q04431 1-385; P39731 1-289; P40568 1-576; P47149 1-201; Q12143 …, ΔZwint (Zwint helix, residues 77–113)); assay: pull-down; KMN or its subcomplexes from Sf9 cells immobilised on anti-Flag M2 beads; 100 µl of 2 µM Ipl1/Sli15 added to ~20 µl beads; 4 °C, 6 h; 25 mM HEPES pH 7.4, 200 mM NaCl, 1 mM MgCl2, 2.5% glycerol, 0.01% Tween-20; eluted with 3xFlag peptide; Coomassie and anti-His blot; also done with prolonged incubation times (Fig. EV3A)
T3 construct: Spc105 (Knl1 homologue), S. cerevisiae; Mtw1, S. cerevisiae; Dsn1, S. cerevisiae; Nnf1, S. cerevisiae; Nsl1, S. cerevisiae; Ndc80, S. cerevisiae; Nuf2, S. cerevisiae; Spc24, S. cerevisiae; Spc25, S. cerevisiae; also called Kre28^ΔZwint KMN network; mutant KMN network; source: Sf9 insect cells, baculoviruses KT1-5 and KT1-6 mut, purified via Spc105-Flag on anti-Flag M2 beads; not shown: Flag, …

Binder	binding result [1]	binding result [2]	binding result [3]
Ipl1/6xHis-Sli15 complex, dephosphorylated by λ phosphatase (complex, S. cerevisiae, dephosphorylated by λ phosphatase | dephosphorylated by λ phosphatase, Ipl1 (Aurora B homologue), S. cerevisiae; Sli15 (INCENP homologue), S. cerevisiae; also called Lambda phosphatase-treated Ipl1/Sli15; source: E. coli BL21, purified (HisTrap, SEC), then treated with λ-Protein Phosphatase (NEB) at 30 °C for 30 min) chain 1: MQRNSLVNIKLNANSPSKKTTTRPNTSRINKPWRISHSPQQRNPNSKIPSPVREKLNRLPVNNKKFLDMESSKIPSPIRKATSSKMIHENKKLPKFKSLSLDDFELGKKLGKGKFGKVYCVRHRSTGYICALKVMEKEEIIKYNLQKQFRREVEIQTSLNHPNLTKSYGYFHDEKRVYLLMEYLVNGEMYKLLRLHGPFNDILASDYIYQIANALDYMHKKNIIHRDIKPENILIGFNNVIKLTDFGWSIINPPENRRKTVCGTIDYLSPEMVESREYDHTIDAWALGVLAFELLTGAPPFEEEMKDTTYKRIAALDIKMPSNISQDAQDLILKLLKYDPKDRMRLGDVKMHPWILRNKPFWENKRL chain 2: MDWAIKAARKKTQRKPGSTRSIIETLDDLNNLTTDAHSEINQRLYESSEWLRNNVYMNTLKYEDKKMEESLISPENTHNKMDVEFPKMKGEYELSNSQNDAAKDVTKTPRNGLHNDKSITPKSLRRKEVTEGMNRFSIHDTNKSPVEPLNSVKVDANESEKSSPWSPYKVEKVLRESSKTSESPINTKRFDNQTWAAKEEMENEPILQALKKAESVKVKPPPNSGIARSQRRSNMFVPLPNKDPLIIQHIPPTKSSGSIPKVRTVKESPIAFKKKSTINSPAIRAVENSDTAGSTKASSVFDRLSSIPTKSFENKISRGNVGHKYSSSSIDLTGSPMKKVSQKFKSINSTDTDMQEALRDIFSVKNKITKNNSPKGKNSRKSSIPRFDKTSLKLTTHKKLAIIAEQKKKSKHSSDVHKTGSRPHSISPTKISVDSSSPSKEVKNYYQSPVRGYLRPTKASISPNKNKNLTTSQTPHRLKIKEKTLRKLSPNIADISKPESRKSKNYRLTNLQLLPPAEAERDDLKKKFDKRLSGIMRSQQEHHRRKQEKQKRMSHLEQDLKKQTSFSNDYKDIRLKESLAPFDNHVRDTINKNTAFSTDNILATINTVDHREIIGNVTPKIASVNDSLPEINTDSEDEASVTLAAWAKSPYLQEQLIRQQDINPQTIFGPIPPLHTDEIFPNPRLNRLKPRQIVPKRS	binds		
Ipl1/6xHis-Sli15 complex (wild type, untreated) (complex, S. cerevisiae, Ipl1 (Aurora B homologue), S. cerevisiae; Sli15 (INCENP homologue), S. cerevisiae; the full-length form was preferentially pulled down; also called Ipl1/Sli15; Ipl1/Sli15 complex; source: E. coli BL21, purified (HisTrap, SEC on Superdex 200)) chain 1: MQRNSLVNIKLNANSPSKKTTTRPNTSRINKPWRISHSPQQRNPNSKIPSPVREKLNRLPVNNKKFLDMESSKIPSPIRKATSSKMIHENKKLPKFKSLSLDDFELGKKLGKGKFGKVYCVRHRSTGYICALKVMEKEEIIKYNLQKQFRREVEIQTSLNHPNLTKSYGYFHDEKRVYLLMEYLVNGEMYKLLRLHGPFNDILASDYIYQIANALDYMHKKNIIHRDIKPENILIGFNNVIKLTDFGWSIINPPENRRKTVCGTIDYLSPEMVESREYDHTIDAWALGVLAFELLTGAPPFEEEMKDTTYKRIAALDIKMPSNISQDAQDLILKLLKYDPKDRMRLGDVKMHPWILRNKPFWENKRL chain 2: MDWAIKAARKKTQRKPGSTRSIIETLDDLNNLTTDAHSEINQRLYESSEWLRNNVYMNTLKYEDKKMEESLISPENTHNKMDVEFPKMKGEYELSNSQNDAAKDVTKTPRNGLHNDKSITPKSLRRKEVTEGMNRFSIHDTNKSPVEPLNSVKVDANESEKSSPWSPYKVEKVLRESSKTSESPINTKRFDNQTWAAKEEMENEPILQALKKAESVKVKPPPNSGIARSQRRSNMFVPLPNKDPLIIQHIPPTKSSGSIPKVRTVKESPIAFKKKSTINSPAIRAVENSDTAGSTKASSVFDRLSSIPTKSFENKISRGNVGHKYSSSSIDLTGSPMKKVSQKFKSINSTDTDMQEALRDIFSVKNKITKNNSPKGKNSRKSSIPRFDKTSLKLTTHKKLAIIAEQKKKSKHSSDVHKTGSRPHSISPTKISVDSSSPSKEVKNYYQSPVRGYLRPTKASISPNKNKNLTTSQTPHRLKIKEKTLRKLSPNIADISKPESRKSKNYRLTNLQLLPPAEAERDDLKKKFDKRLSGIMRSQQEHHRRKQEKQKRMSHLEQDLKKQTSFSNDYKDIRLKESLAPFDNHVRDTINKNTAFSTDNILATINTVDHREIIGNVTPKIASVNDSLPEINTDSEDEASVTLAAWAKSPYLQEQLIRQQDINPQTIFGPIPPLHTDEIFPNPRLNRLKPRQIVPKRS	binds	binds	binds
Ipl1/6xHis-Sli15^4E complex (complex, S. cerevisiae, Ipl1 (Aurora B homologue), S. cerevisiae; Sli15 (INCENP homologue), S. cerevisiae, 4E mutant (plasmid pAD146 in pETDuett); also called Sli15^4E mutant; Sli15 R231E R232E L239E K242E; source: E. coli BL21, purified (HisTrap, SEC on Superdex 200)) chain 1: MQRNSLVNIKLNANSPSKKTTTRPNTSRINKPWRISHSPQQRNPNSKIPSPVREKLNRLPVNNKKFLDMESSKIPSPIRKATSSKMIHENKKLPKFKSLSLDDFELGKKLGKGKFGKVYCVRHRSTGYICALKVMEKEEIIKYNLQKQFRREVEIQTSLNHPNLTKSYGYFHDEKRVYLLMEYLVNGEMYKLLRLHGPFNDILASDYIYQIANALDYMHKKNIIHRDIKPENILIGFNNVIKLTDFGWSIINPPENRRKTVCGTIDYLSPEMVESREYDHTIDAWALGVLAFELLTGAPPFEEEMKDTTYKRIAALDIKMPSNISQDAQDLILKLLKYDPKDRMRLGDVKMHPWILRNKPFWENKRL chain 2: MDWAIKAARKKTQRKPGSTRSIIETLDDLNNLTTDAHSEINQRLYESSEWLRNNVYMNTLKYEDKKMEESLISPENTHNKMDVEFPKMKGEYELSNSQNDAAKDVTKTPRNGLHNDKSITPKSLRRKEVTEGMNRFSIHDTNKSPVEPLNSVKVDANESEKSSPWSPYKVEKVLRESSKTSESPINTKRFDNQTWAAKEEMENEPILQALKKAESVKVKPPPNSGIARSQEESNMFVPEPNEDPLIIQHIPPTKSSGSIPKVRTVKESPIAFKKKSTINSPAIRAVENSDTAGSTKASSVFDRLSSIPTKSFENKISRGNVGHKYSSSSIDLTGSPMKKVSQKFKSINSTDTDMQEALRDIFSVKNKITKNNSPKGKNSRKSSIPRFDKTSLKLTTHKKLAIIAEQKKKSKHSSDVHKTGSRPHSISPTKISVDSSSPSKEVKNYYQSPVRGYLRPTKASISPNKNKNLTTSQTPHRLKIKEKTLRKLSPNIADISKPESRKSKNYRLTNLQLLPPAEAERDDLKKKFDKRLSGIMRSQQEHHRRKQEKQKRMSHLEQDLKKQTSFSNDYKDIRLKESLAPFDNHVRDTINKNTAFSTDNILATINTVDHREIIGNVTPKIASVNDSLPEINTDSEDEASVTLAAWAKSPYLQEQLIRQQDINPQTIFGPIPPLHTDEIFPNPRLNRLKPRQIVPKRS	binds		
